{"source": "patent US6060451A", "about": "“Thrombin inhibitors based on the amino acid sequence of hirudin” (The National Research Council of Canada, priority 1995, dated 2000)", "molecules": {"B1": {"name": "r-Hirudin: recombinant hirudin (HV-2), thrombin inhibitor protein of the leech Hirudo medicinalis (protein)", "chain": "ITYTDCTESGQNLCLCEGSNVCGKGNKCILGSNGKGNQCVTGEGTPNPESHNNGDFEEIPEEYLQ"}}, "key": {"[1]": {"test_system": "activated partial thromboplastin time", "test": "Increase in APTT, bolus plus infusion model", "format": "in vivo, rat", "parameters": "Infusion Dose needed to cause 2-4 fold increase in APTT: unit not given here", "conditions": "intravenous bolus followed by infusion"}, "[2]": {"test_system": "arteriovenous shunt occlusion", "test": "Antithrombotic activity in the arteriovenous shunt model", "conditions": "rats, 5 min after intravenous administration"}, "[3]": {"test_system": "carotid artery thrombosis", "test": "Ferric chloride injury-induced thrombosis model in carotid artery", "conditions": "rat carotid artery, FeCl3 injury; control patency time 19 ± 1 min", "experimental": "Species: Rat, male, Sprague-Dawley.\nAnimals were laid on a heating pad which was maintained at 37° C. The carotid artery was approached through a midline cervical incision. Carefully blunt dissection was used to expose and isolate the vessel from the carotid sheath. […] The vessel temperature was monitored for 60 minutes after application of FeCl3. […] The site of the experiment was covered with aluminum foil in order to protect the FeCl3 from degradation by light.\nAll the samples were kept on ice and centrifuged as soon as possible at 2000 Rpm for 10 min., 4° C. The plasma was analyzed in duplicate for activated partial thromboplastin time on a haemostasis analyzer (STAGO ST4™).\nFrom a group of four animals, two arteries were stored at -80° C. for further analysis. The others were observed under a light microscope at 40× (Leica™) for quantification of the occlusion (complete, partial, no occlusion).\nIn some studies, the animal was receiving the compound by i.v. infusion instead of a bolus. In this case, the jugulars and femoral veins were cannulated with Sylastic tubing (I.D. 0.025IN). This left jugular was used for blood sampling and the right one for the infusion line. The compound was infused 30 minutes before injury and then for an other 30 minutes post-injury. Blood samples were taken at time 0, 30 and 60 minutes for APTT test and thrombin test (1 ml of blood/90 ul of citrated buffer)."}}, "data": [{"molecule": "B1", "values": [{"measurement": "Bolus Dose needed to cause 2-4 fold increase in APTT", "setting": "[1]", "value": 0.15, "unit": "mg/kg"}, {"measurement": "Infusion Dose needed to cause 2-4 fold increase in APTT", "setting": "[1]", "value": 15}, {"measurement": "ED15 (dose which causes a prolongation of the time until occlusion of the shunt by 15 min)", "setting": "[2]", "value": 1.42, "unit": "mg/kg"}, {"measurement": "Dose to double patency time", "setting": "[3]", "value": 1, "unit": "mg/kg"}]}]}
